Measurements: paper PMC12012759 (Protein Science : A Publication of the Protein Society, 2025)

Key:
Assay in all cases: ELISA
Settings in all cases: both partners purified
[1] = target: T1, Fc fusion of Severe acute respiratory syndrome coronavirus 2 P0DTC2 (SARS‐CoV‐2 Wuhan, UniProt P0DTC2)
T1 construct: also called RBD‐Fc; RBD

[2] = target: full‐length SARS‐CoV‐2 spike protein (1273 amino acids) (SARS-CoV-2 Wuhan, UniProt P0DTC2)
human serum albumin = human serum albumin (Homo sapiens, UniProt P02768)

Measured: binding result

B1: Clostridioides difficile toxin A‐specific A20.1 VHH (VHH)
VHH: QVQLVESGGGLAQAGGSLRLSCAASGRTFSMDPMAWFRQPPGKEREFVAAGSSTGRTTYYADSVKGRFTISRDNAKNTVYLQMNSLKPEDTAVYYCAAAPYGANWYRDEYAYWGQGTQVTVSS
no binding: all assays above
